# Measurements published in patent EP0730609B1 (SMITHKLINE BEECHAM CORPORATION, dated 2005).
# T1: recombinant human IL4 (E. coli, non-glycosylated) (human, UniProt P05112 25-153)
# T1 construct: also called hIL4; hIL-4
# T1 sequence (looked up): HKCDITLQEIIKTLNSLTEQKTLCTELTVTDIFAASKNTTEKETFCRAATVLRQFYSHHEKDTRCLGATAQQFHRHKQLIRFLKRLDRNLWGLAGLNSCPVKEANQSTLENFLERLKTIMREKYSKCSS
# B1: humanized 3B9 (IgG1) (antibody, V domains shown)
# VH: QVTLRESGPALVKPTQTLTLTCTFSGFSLSTSGMGVSWIRQPPGKGLEWLAHIYWDDDKRYNPSLKSRLTISKDTSRNQVVLTMTNMDPVDTATYYCARRETVFYWYFDVWGRGTPVTVSS
# VL: IVMTQSPDSLAVSLGERATINCKASQSVDYDGDSYMNWYQQKPGQPPKLLIYAASNLESGVPDRFSGSGSGTDFTLTISSLQAEDVAVYYCQQSNEDPPRFGGGTKVEIKR
# Key:
# [1] = target: T1, recombinant human IL4 (E. coli, …); test: titration microcalorimetry, measured at 60°C and calculated for 25°C, pH 7.4, 150 mM NaCl
# [2] = target: T1, recombinant human IL4 (E. coli, …); test: cell-based or functional assay
# [3] = target: T1, recombinant human IL4 (E. coli, …); test: titration microcalorimetry, 25°C, pH 7.4, 150 mM NaCl
binder,measurement,setting,value
B1,Kd,[1],0.011 nM
same,"B cell (inhibition of IL4-stimulated B lymphocyte proliferation), IC50",[2],47 pM
same,"CD23 induction (inhibition of IL4-induced CD23 expression on B lymphocytes), IC50",[2],333 pM
same,"IgE synthesis (inhibition of IL4-driven IgE secretion), IC50",[2],54 pM
same,"T cell (inhibition of IL4-stimulated T lymphocyte proliferation), IC50",[2],44 pM
same,-TΔS,[3],8.2 kcal/mol IL4
same,ΔG,[3],-13.6 kcal/mol IL4
same,ΔH,[3],-21.8 kcal/mol IL4
